Measurements reported in patent US20250121076A1, “POLYPEPTIDE DRUG CONJUGATE HAVING NOVEL STRUCTURE AND APPLICATION THEREOF” (MEDSHINE DISCOVERY INC., priority 2021, published 2025).
Counter-ions that a name gives are not always drawn. Starred links: 1 amine or outer side, 2 acyl side, 3 side chain; linkers in the order of their positions; H or OH if unused. Positions of bridges follow the written chain, without caps; N, C: chain ends. Non-standard residues stand in square brackets, D forms with d. Residues, ends and D or L forms follow the SMILES beside them. Chains are numbered I, II in the order given. *: point of attachment. TATA = O=C(CC[*:1])N1CN(C(=O)CC[*:2])CN(C(=O)CC[*:3])C1; Dolaproine = CO[C@@H]([C@@H]1CCCN1)[C@@H](C)C(=O)O; Dil = CC[C@H](C)[C@H](NC)[C@@H](CC(=O)O)OC; X2 = O=C(CCCC(=O)[*:2])NCCC(=O)[*:1]; PABC = O=C(OCc1ccc(N[*:1])cc1)[*:2]; X1 = C[C@@H](N*)[C@@H](O)c1ccccc1; Hyp = O=C(O)[C@@H]1C[C@@H](O)CN1; hArg = N=C(N)NCCCC[C@H](N)C(=O)O; Cit = NC(=O)NCCC[C@H](N)C(=O)O; Pen = CC(C)(S)[C@H](N)C(=O)O; NMeV = CN[C@H](C(=O)O)C(C)C; Sar = CNCC(=O)O

Tests used:
[1] = Pharmacokinetic analysis in Cynomolgus macaque plasma; assay type: in vivo, Cynomolgus macaques; conditions: cynomolgus monkey, in vivo, Cynomolgus macaques, single IV 1 mg/kg, plasma
Experimental: To test the pharmacokinetics of the compounds of the present invention in Cynomolgus macaques.
The pharmacokinetic characteristics of the compound after intravenous injection and oral administration were tested in Cynomolgus macaques according to a standard protocol. The compound of the present invention was formulated into a clear solution using 50 mM acetate buffer (pH=5) in 10% sucrose as a vehicle. Two Cynomolgus macaques were given a single intravenous injection of 1 mg/kg of the compound to be tested. Whole blood was collected at time points of 0.083, 0.25, 0.5, 1, 2, 4, 8, and 24 hours after administration to get plasma. The concentration of the compound to be tested and the concentration of its potential metabolite MMAE were analyzed by the LC-MS/MS method, and the pharmacokinetic parameters were calculated by Phoenix WinNonlin software.

SK-OV-3 = test: In vitro anti-proliferative activity, CellTiter-Glo; assay type: cell-based, Human; conditions: SK-OV-3, 72 h
Experimental: (§1) To investigate the effect of the compounds of the present invention on inhibiting cell proliferation by detecting the effect of the compounds on cell activity in vitro in tumor cell lines NCI-H1975 and SK-OV-3.
(§2) The tumor cell lines were cultured in a 37° C., no CO2 incubator and a 37° C., 5% CO2 incubator according to the culture conditions shown in Table 15, respectively. The cells were periodically passaged, and cells in a logarithmic growth phase were taken for plating.
(§3) Cells in a logarithmic growth phase were harvested and centrifuged at 1000 rpm for 3 min at room temperature. The supernatant was discarded, and the cells were resuspended in 5 mL of a culture medium. Then, 20 ul of the cell suspension was pipetted and mixed with trypan blue at 1:1 for staining for 3 min to detect cell viability and to count viable cells. The cell density was adjusted to 4000 NCI-H1975/well or 5000 SK-OV-3/well. Then, 90 μL of the cell suspension was added to each culture plate well, and a cell-free culture medium was added to blank control wells. […]
(§4) The detection was performed according to the instructions of the Promega CellTiter-Glo Luminescent Cell Viability Assay kit (Promega-G7573). The luminescence signal was detected on the En Vision® Multi-mode Plate Reader (EnVision 2104-10). […]

NCI-H1975 = test: as above; assay type: cell-based, Human; conditions: NCI-H1975, 72 h
Experimental: as §1, §2, §3, §4

[2] = Metabolic stability in hepatocytes; assay type: in vitro ADME, Humans; conditions: human hepatocytes, 1 μM, 0.5×10^6 cells/mL
Experimental: To investigate the metabolic stability of the compounds of the present invention in hepatocytes from Cynomolgus macaques and humans.
Incubations were performed in 96-well plates using an external extraction method. Several 96-well sample precipitation plates, designated T0, T15, T30, T60, T90, T0-MC, T90-MC, and blank matrix, were prepared, respectively. The recovery culture medium and incubation culture medium were removed in advance and placed in a 37° C. water bath for preheating. Frozen hepatocytes from Cynomolgus macaques and humans were removed from a liquid nitrogen tank, recovered, and diluted to 0.51×10^6 cells/mL with the incubation culture medium. […]
At the end of the incubation at the corresponding time point, the incubation plates were removed, from which 25 μL of a compound mixture with the cells was removed and added to sample plates containing 125 μL of stop buffer. […] All samples were mixed uniformly and then analyzed by the LC-MS/MS method.
The concentration of the compound of the present invention in the sample was semi-quantitatively determined by the liquid chromatography-tandem mass spectrometry (LC-MS/MS) method without a standard curve and quality control sample. […]

CC[C@H](C)[C@@H]([C@@H](CC(=O)N1CCC[C@H]1[C@H](OC)[C@@H](C)C(=O)N[C@H](C)[C@@H](O)c1ccccc1)OC)N(C)C(=O)[C@@H](NC(=O)[C@H](C(C)C)N(C)C(=O)OCc1ccc(NC(=O)[C@H](CCCNC(N)=O)NC(=O)[C@@H](NC(=O)CCCC(=O)NCCC(=O)N(C)CC(=O)N(C)CC(=O)N(C)CC(=O)N(C)CC(=O)N(C)CC(=O)N(C)CC(=O)N(C)CC(=O)N(C)CC(=O)N(C)CC(=O)N(C)CC(=O)N[C@H]2CCCCNC(=O)C[C@@H](C(=O)N[C@H]3CSCCC(=O)N4CN5CN(C4)C(=O)CCSC(C)(C)[C@@H](C(N)=O)NC(=O)[C@H](CCCCNC(=N)N)NC(=O)[C@H](Cc4c[nH]c6ccccc46)NC(=O)[C@@H](CC(=O)O)NC(=O)[C@@H]4CCCN4C(=O)[C@H](Cc4c[nH]cn4)NC(=O)[C@H](CC(C)C)NC(=O)[C@H](CSCCC5=O)NC(=O)[C@H](CC(C)C)NC(=O)[C@@H]4CCCN4C(=O)[C@H](CC(N)=O)NC(=O)[C@H](C(C)C)NC(=O)[C@H](CC(C)C)NC(=O)[C@@H]4C[C@@H](O)CN4C3=O)NC(=O)[C@H](CCCCNC(=N)N)NC2=O)C(C)C)cc1)C(C)C [Acetate salt of PDC_8] (I: [Sar][Sar][Sar][Sar][Sar][Sar][Sar][Sar][Sar][Sar]K[hArg]DC[Hyp]LVNPLCLHP[dD]W[hArg][Pen]-NH2 / II: V[Cit][PABC][NMeV]V[Dil][Dolaproine]-X1; lactam I:11-I:13; linker I:14-I:21-I:28 via TATA; linker I:N-II:N via X2) gave an AUC(0-t) [1] of 0.651 µM·h, a C0 [1] of 2470 nM and a clearance [1] of 5.72 mL/min/kg. It also gave a half-life [1] of 18.6 min, a Vd ([1]; read-out: Vdss) of 0.12 L/kg and an IC50 (SK-OV-3) of 586 nM. The IC50 (NCI-H1975) was 79 nM, the half-life [2] was over 217 min and the CLint scaled ([2]; read-out: CLint (liver)) was under 17.8 mL/min/kg.
